Reference: US20250034266A1 (ZAI LAB SHANGHAI, published 2025)
Residue numbers refer to the chain shown, from its start.

B1: 149F2C10_G29A (antibody, V domains shown)
VH: EVQLVESGGGLVQPKGSLKLSCAASGFTFNTYAMNWVRQAPGKGLEWVARIRSKSNFYATYYADSVKDRFTISRDDSQDMLYLQMNILKTEDTAIYYCVRGRDYGSSYAMDYWGQGTSVTVSS
VL: DIVMTQAAPSVPVTPGESVSISCRSSKSLLHSNANTYLYWFLQRPGQSPQLLIYRMSNLASGVPDRFSGSGSGTAFTLRISRVEAEDVGVYYCMQHLEYPLTFGAGTKLELK
notes: NG site removed variant of 149F2C10
B2: 149F2C10-CHO (antibody, V domains shown)
VH: B1 VH
VL: B1 VL with A34G
notes: The suffix -CHO is not explained
B3: 149F2C10_G29I (antibody, V domains shown)
VH: B1 VH
VL: B1 VL with A34I
notes: as for B1
B4: 149F2C10_N28Q (antibody, V domains shown)
VH: B1 VH
VL: B1 VL with N33Q, A34G
notes: NG site removed variant of 149F2C10; detected with anti-mouse IgG
B5: 149F2C10_N28S (antibody, V domains shown)
VH: B1 VH
VL: B1 VL with N33S, A34G
notes: as for B1
B6: 149F2C10_G29V (antibody, V domains shown)
VH: B1 VH
VL: B1 VL with A34V
notes: as for B1
B7: 149F2C10_N28I (antibody, V domains shown)
VH: B1 VH
VL: B1 VL with N33I, A34G
notes: as for B1
B8: Hu149-1 (antibody, V domains shown)
VH: EVQLVESGGGLVQPGGSLKLSCAASGFTFNTYAMNWVRQASGKGLEWVGRIRSKSNFYATYYAASVKGRFTISRDDSKNTAYLQMNSLKTEDTAVYYCVRGRDYGSSYAMDYWGQGTLVTVSS
VL: DIVMTQSPLSLPVTPGEPASISCRSSKSLLHSNANTYLYWFLQKPGQSPQLLIYRMSNLASGVPDRFSGSGSGTDFTLKISRVEAEDVGVYYCMQHLEYPLTFGGGTKVELK
notes: humanized IgG, detected with anti-human IgG
B9: Hu149-6 (antibody, V domains shown)
VH: B8 VH with N35H
VL: B8 VL with F41Y
notes: humanized IgG
B10: Hu149-5 (antibody, V domains shown)
VH: B8 VH
VL: B8 VL with F41Y
notes: humanized IgG
B11: Hu149-7 (antibody, V domains shown)
VH: B8 VH with Y61A
VL: B8 VL with F41Y
notes: humanized IgG
B12: Hu149-2 (antibody, V domains shown)
VH: B8 VH with N35H
VL: B8 VL
notes: humanized IgG
B13: Hu149-8 (antibody, V domains shown)
VH: B8 VH with V99T
VL: B8 VL with F41Y
notes: humanized IgG
B14: Hu149-3 (antibody, V domains shown)
VH: B8 VH with Y61A
VL: B8 VL
notes: humanized IgG
B15: Hu149-24 (antibody, human IgG1, V domains shown)
VH: B8 VH with S41P, Y61A, V99T, R102K, D103E
VL: B8 VL with E98K
notes: human IgG1
B16: Hu149-23 (antibody, human IgG1, V domains shown)
VH: B8 VH with S41P, Y61A, V99T, D103E
VL: B8 VL with E98K
notes: human IgG1

target: T1, human CCR8 (human, UniProt P51685 1-355); assay: FACS on HEK293-human CCR8 cells
T1 construct: whole, on cells; also called hCCR8
Procedure: (§1) Binding affinities of NG site removed antibodies were determined on human CCR8 and cynomolgus CCR8 overexpression cells. Briefly, CFSE labeled HEK293-human CCR8 cells or CFSE labeled HEK293-cynomolgus CCR8 cells were mixed with HEK293 cells. The mixed ratio was 1:1. A total of 5×10⁴ mixed cells for each well were seeded in 96-well plates and washed by FACS buffer (DPBS containing 1% FBS) once. Cells were incubated by serial diluted purified hybridoma antibodies for 1 hour at 4° C. Antibodies were prepared with 3-fold serial dilution ranging from 100 nM to 0.0017 nM or from 25.3165 nM to 0.0004 nM in FACS buffer. […] After primary antibody incubation, cells were washed by FACS buffer for three times. Then, cells were stained with secondary antibody (Alexa Flu647-conj gated rabbit anti-mouse IgG, Jackson ImmunoResearch, #315606046) at 1:600 dilution in FACS buffer, incubated for 0.5 hour at 4° C. […] FlowJo software was used for analysis. Data was plotted as the logarithm of antibody concentration versus mean fluorescence signals. EC₅₀ values were calculated in GraphPad Prism 8 (GraphPad Software) using a log (agonist) vs. response-Variable slope (4 parameters) curve fit.

T1 sequence (P51685 whole entry): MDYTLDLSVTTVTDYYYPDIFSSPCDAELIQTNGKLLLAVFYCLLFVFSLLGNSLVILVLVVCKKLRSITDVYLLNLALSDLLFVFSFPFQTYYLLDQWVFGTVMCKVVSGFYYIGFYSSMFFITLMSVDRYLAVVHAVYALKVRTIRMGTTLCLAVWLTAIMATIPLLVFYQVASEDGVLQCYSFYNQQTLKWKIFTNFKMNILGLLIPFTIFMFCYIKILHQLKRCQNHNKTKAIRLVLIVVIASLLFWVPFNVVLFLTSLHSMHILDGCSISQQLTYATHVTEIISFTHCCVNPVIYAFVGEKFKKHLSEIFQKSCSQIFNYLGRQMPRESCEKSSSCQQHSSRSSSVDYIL

| EC50 [nM] | Max MFI [MFI] | Binder |
| --- | --- | --- |
| 0.129 | 2040 | B1 |
| 0.142 | 1740 | B2 |
| 0.146 | 2060 | B3 |
| 0.161 | 1640 | B4 |
| 0.21 | 1420 | B5 |
| 0.194 | 1900 | B6 |
| 0.244 | 1650 | B7 |

target: T1, human CCR8; assay: FACS on HEK293-human CCR8 cells; remark: another data set of the same source
Procedure: (§2) A total of 5×10⁴ cells for each well were seeded in 96-well plates and washed with FACS buffer (DPBD containing 1.5% FBS) for once. Antibodies were prepared with 3-fold serial dilution ranging from 100 nM to 0.0017 nM in FACS buffer. Cells were incubated with 50 μL of diluted antibodies at 4° C. for 1 hour. […] After primary antibody incubation, cells were washed for 3 times by FACS buffer. Then, cells were stained by Alexa Flu647 labeled anti-human IgG secondary antibody (Jackson ImmunoResearch, #109606170) or Alexa Flu647 labeled anti-mouse IgG secondary antibody (Jackson ImmunoResearch, #115605072) at 1:600 dilution in FACS buffer for 0.5 hour at 4° C. After washed for 3 times, Flow cytometry was performed to measure the binding.

| EC50 [nM] | Max MFI [MFI] | Binder |
| --- | --- | --- |
| 0.534 | 7610 | B8 |
| – | 138 | B9 |
| 15 | 2470 | B10 |
| 6.42 | 3110 | B11 |
| 3.48 | 1120 | B12 |
| 0.24 | 3830 | B13 |
| 0.193 | 7000 | B14 |

target: T1, human CCR8; assay: FACS on CHO-K1-human CCR8 cells

| EC50 [nM] | Max MFI [MFI] | Binder |
| --- | --- | --- |
| 0.166 | 844000 | B15 |
| 0.265 | 816000 | B16 |

target: T2, cynomolgus CCR8 (cynomolgus, UniProt G7NYJ2 1-355); assay: FACS on HEK293-cynomolgus CCR8 cells
T2 construct: whole, on cells
Procedure: as §1

T2 sequence (G7NYJ2 entry or part of it): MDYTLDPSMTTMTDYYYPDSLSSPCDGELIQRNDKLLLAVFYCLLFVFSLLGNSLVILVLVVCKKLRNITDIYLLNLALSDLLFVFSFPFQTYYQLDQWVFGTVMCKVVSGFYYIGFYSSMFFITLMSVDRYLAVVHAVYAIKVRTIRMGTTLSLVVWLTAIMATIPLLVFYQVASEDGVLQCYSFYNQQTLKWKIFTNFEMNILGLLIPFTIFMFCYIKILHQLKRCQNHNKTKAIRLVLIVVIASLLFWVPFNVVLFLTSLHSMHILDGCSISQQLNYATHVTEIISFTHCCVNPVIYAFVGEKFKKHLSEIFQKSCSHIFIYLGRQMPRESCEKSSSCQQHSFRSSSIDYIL

| EC50 [nM] | Max MFI [MFI] | Binder |
| --- | --- | --- |
| 0.173 | 4720 | B1 |
| 0.131 | 3310 | B2 |
| 0.19 | 4640 | B3 |
| 0.209 | 2450 | B4 |
| 0.333 | 2020 | B5 |
| 0.211 | 4680 | B6 |
| 0.314 | 1890 | B7 |

target: T2, cynomolgus CCR8; assay: FACS on HEK293-cynomolgus CCR8 cells; remark: another data set of the same source
Procedure: as §2

| EC50 [nM] | Max MFI [MFI] | Binder |
| --- | --- | --- |
| 0.578 | 20900 | B8 |
| – | 443 | B9 |
| – | 414 | B10 |
| – | 488 | B11 |
| 146 | 1550 | B12 |
| – | 2420 | B13 |
| 0.205 | 19900 | B14 |

target: T2, cynomolgus CCR8; assay: FACS on HEK293-cynomolgus CCR8 cells; remark: another data set of the same source

| EC50 [nM] | Max MFI [MFI] | Binder |
| --- | --- | --- |
| 0.161 | 3.9e+06 | B15 |
| 0.369 | 4.32e+06 | B16 |

target: T1, human CCR8; assay: FACS on HuT78 cells (endogenous human CCR8)
Procedure: HuT78 cells expressing endogenous human CCR8 were used for determining binding affinities of selected affinity matured anti-CCR8 antibodies. Briefly, a total of […] cells for each well were seeded in 96-well plates and washed with FACS buffer (DPBS containing […]) for once. […] Cells were incubated with 50 μL of diluted antibodies at 4° C. for 1 hour. After primary antibody incubation, cells were washed for 3 times by FACS buffer. Then, cells were stained by Alexa Fbu647 labeled anti-human IgG secondary antibody (Jackson ImmunoResearch, #109606170) at 1:600 dilution in FACS buffer for 0.5 hour at 4° C. After 3 times washed, flow cytometry (Sartourius, iQue3) was performed to measure the binding affinities of antibodies. […]

| Max MFI [MFI] | Binder |
| --- | --- |
| 198000 | B15 |
| 161000 | B16 |

target: T1, human CCR8; assay: FACS, competition with CCL1 on CHO-K1-human CCR8 cells

| IC50 [nM] | Max Inhibition (%) | Binder |
| --- | --- | --- |
| 0.172 | 106 | B15 |
| 0.259 | 103 | B16 |

target: T1, human CCR8; assay: FACS, competition with AF647-human CCL1 on CHO-K1-human CCR8 cells
Procedure: Blocking curves were generated to rank the blocking activities of PTM sites removed antibodies. Briefly, a total of 5×10⁴ CHO-K1-human CCR8 cells for each well were seeded in 96-well plate. Cells were incubated by series diluted purified hybridoma antibodies and 4 nM AF647 labeled human CCL1 (Almac, #CAF-07) for 1 hour at 4° C. Antibodies were prepared with 3-fold serial dilution ranging from 100 nM to 0.0051 nM in FACS buffer. Then, cells were washed by FACS buffer for three times after incubation. […] FlowJo software was used for analysis. Data was plotted as the logarithm of antibody concentration versus mean fluorescence signals. IC₅₀ values were determined in GraphPad Prism 8 (GraphPad Software) using a log(agonist) vs. response-Variable slope (4 parameters) curve fit.

| IC50 [nM] | Max Inhibition (%) | Binder |
| --- | --- | --- |
| 0.725 | 77.5 | B1 |
| 0.934 | 80.1 | B2 |
| 1.09 | 70.7 | B3 |
| 3.07 | 55.7 | B4 |
| 15 | 44.9 | B5 |
| 1.04 | 72 | B6 |
| 2.25 | 65.3 | B7 |

target: T1, human CCR8; assay: as above; remark: another data set of the same source

| IC50 [nM] | Max Inhibition (%) | Binder |
| --- | --- | --- |
| 0.936 | 99.2 | B8 |
| 2.37 | 1 | B9 |
| 49.6 | 57.3 | B10 |
| 37.8 | 59 | B11 |
| 12.5 | 39.5 | B12 |
| 1.24 | 86.5 | B13 |
| 0.478 | 99.2 | B14 |
